Data as given in article PMC7497161.
*1 amine or outer side, *2 acyl side, *3 side chain or, on linkers, in order; H or OH if unused. Where no end group is shown, it is not given here. [ ]: non-standard residue; d: D form. Dap(Dnp) = diaminopropionic acid carrying a 2,4-dinitrophenyl quencher, O=C([C@H](CNc1ccc([N+](=O)[O-])cc1[N+](=O)[O-])N[*:1])[*:2]; 2Abz = Nc1ccccc1C(=O)O

B1: Abz-VDVAD-TA-Dap(Dnp) (peptide)
peptide: [2Abz]VDVADTA-{Dap(Dnp)}
B2: Abz-VDVAD-VA-Dap(Dnp) (peptide)
peptide: [2Abz]VDVADVA-{Dap(Dnp)}
B3: Abz-VDVAD-LA-Dap(Dnp) (peptide)
peptide: [2Abz]VDVADLA-{Dap(Dnp)}
B4: Abz-VDVAD-AA-Dap(Dnp) (peptide)
peptide: [2Abz]VDVADAA-{Dap(Dnp)}
B5: Abz-VDVAD-PA-Dap(Dnp) (peptide)
peptide: [2Abz]VDVADPA-{Dap(Dnp)}
B6: Abz-VDVAD-GA-Dap(Dnp) (peptide)
peptide: [2Abz]VDVADGA-{Dap(Dnp)}

The binders below were run against circularly permuted Caspase-2 double mutant Asp323Thr/His226Ala (human) (UniProt P42575).
UniProt P42575, sequence (P42575 whole entry H226A/D323T): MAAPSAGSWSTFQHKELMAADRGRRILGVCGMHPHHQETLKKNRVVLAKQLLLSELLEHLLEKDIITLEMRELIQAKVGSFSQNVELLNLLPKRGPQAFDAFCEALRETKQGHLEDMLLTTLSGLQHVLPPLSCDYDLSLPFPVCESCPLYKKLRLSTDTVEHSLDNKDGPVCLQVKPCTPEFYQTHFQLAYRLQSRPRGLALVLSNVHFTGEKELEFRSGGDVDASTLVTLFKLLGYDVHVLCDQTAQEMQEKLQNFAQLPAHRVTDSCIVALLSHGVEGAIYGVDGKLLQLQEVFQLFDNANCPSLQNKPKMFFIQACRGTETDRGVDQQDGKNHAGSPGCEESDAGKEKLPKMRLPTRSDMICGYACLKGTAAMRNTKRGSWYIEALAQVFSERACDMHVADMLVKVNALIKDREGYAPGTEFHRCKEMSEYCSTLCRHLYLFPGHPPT

| Binder | K M (Michaelis-Menten kinetics, FRET peptide-based cleavage assay, 1 μM enzyme) [µM] |
| --- | --- |
| B1 | 82 |
| B2 | 77 |
| B3 | 193 |
| B4 | 57 |
| B5 | 43 |
| B6 | 55 |
